Experimental data published in patent US7951530B2, “Cyclic maltosylmaltose, cyclic maltosymaltose-forming enzyme, their preparation and uses” (Kabushiki Kaisha Hayashibara Seibutsu Kagaku Kenkyujo, priority 2003, dated 2011).

T1: Salivary α-amylase (Homo sapiens, UniProt P0DUB6)
T1 sequence (P0DUB6 16-511): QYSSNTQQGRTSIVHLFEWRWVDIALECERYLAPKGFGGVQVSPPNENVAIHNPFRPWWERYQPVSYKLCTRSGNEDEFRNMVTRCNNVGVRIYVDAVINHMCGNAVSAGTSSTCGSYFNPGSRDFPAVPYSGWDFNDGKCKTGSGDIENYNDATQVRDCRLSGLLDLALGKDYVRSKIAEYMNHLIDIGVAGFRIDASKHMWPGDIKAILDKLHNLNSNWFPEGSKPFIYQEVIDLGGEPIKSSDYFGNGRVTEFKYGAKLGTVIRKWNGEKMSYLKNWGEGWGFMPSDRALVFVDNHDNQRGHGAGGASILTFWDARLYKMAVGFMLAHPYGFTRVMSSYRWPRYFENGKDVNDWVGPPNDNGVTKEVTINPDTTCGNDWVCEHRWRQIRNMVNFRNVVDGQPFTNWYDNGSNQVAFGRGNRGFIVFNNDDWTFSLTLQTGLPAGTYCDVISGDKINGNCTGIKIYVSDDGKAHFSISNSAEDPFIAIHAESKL

B1: CMM-forming enzyme: enzyme from Arthrobacter globiformis M6 acting on α-1,4 glucans of polymerization degree 3 or higher to form CMM; SEQ ID NO:2 (protein, listed as Arthrobacter globiformis)
chain: DPTTSPGPLAEGDVIYQVLVDRFEDGDPTNNDQGDGEYDPSDLGFYHGGDWAGLTDRLDYIADLGVTAIWLSPVSEQQPLSRDGLEASYHGYFTRDFATPNEHFGDRAELQELIDTAHDLGLKMILDVVPNHTADYLAGTSTTYSPSTYKPASPLDDASYFHHAGDCLFNGLETQTQIENCDLGGLDDLDQSNPVVSSHLMSTYKDWVDMGFDGIRVDAARSVPKPWLADFEAEMGVPTFGEVFVGDVDYVSEYQDYEWGVLDFPYFFTVREAFSADTDMNKLGDLFDQDSKYANPNRLETFLDNHDRARFLTWADDNYQRLRSGLTFLLTSRGVPVIYYGTEQADDGNGNPYEVPIANKDNRKDMESFDQNSNLYKHIQRLTAIKAAYPALQVGTQREMWSDTSVYGFSRRVDSTGAEAMTFSSNSWTTQTRTVPLRAESSITVGTTLTNLMNTGDTVTVTAGGVTGKQITVSLGEHESKVYAPGTPVSAYSPEARNTTKIRVHYNVGLGHSIAIRGDEYPFTWTSGRGARNVASDVWEFEVERIPDGETFQFKPLIDDVTWSTGGNFTGTGGDVIDIYPTF

Assays:
CMM-forming enzyme = experiment: Action on various saccharides (substrate specificity, TLC); format: biochemical, Arthrobacter globiformis M6; design: key: “−” means “Not changed”; “+” means “Spot of substrate is slightly decreased and other products are detected”; “++” means “Spot of substrate is markedly decreased and other products are detected”; “+++” means “Spot of substrate is virtually disappeared and other products are detected”; conditions: substrate 2% (w/v), one unit/g-substrate enzyme, 40° C., pH 6.0, 24 hours, TLC before and after reaction
Method: Substrate specificity of CMM-forming enzyme of the present invention was investigated using various saccharides as substrates. Substrate solutions were prepared by dissolving maltose, maltotriose, maltotetraose, maltopentaose, maltohexaose, maltoheptaose, neotrehalose, trehalose, kojibiose, nigerose, […] isomaltose, isomaltotriose, panose, isopanose, maltitol, maltotriitol, α-, β- or γ-cyclodextrin, amylose, soluble starch, glycogen, pullulan or dextran into water. Each substrate solution was admixed with acetate buffer (pH 6.0) and CaCl2 to give final concentrations of 20 mM and 1 mM, respectively. […] Substrate concentration was set to 2% (w/v) and followed by the enzyme reaction at 40° C. and pH 6.0 for 24 hours. Action and the specificity of the enzyme on these saccharides were confirmed by analyzing the reaction mixture before and after the reaction by TLC described in Experiment 1.

Salivary α-amylase = biological target: T1, Salivary α-amylase; experiment: Digestibility by salivary α-amylase
Description: (§1) 43, 23-29 (1990), the digestibility of CMM by salivary α-amylase, artificial gastric juice, pancreas amylase, and small intestinal enzymes were investigated using the powdery hydrous crystalline CMM, obtained by the method in Experiment 14.

Pancreas α-amylase = experiment: Digestibility by pancreas α-amylase
Description: as §1

[1] = Digestibility by artificial gastric juice
Description: as §1

Small intestinal enzymes = experiment: Digestibility by small intestinal enzymes
Description: as §1

[2] = Isoelectric point of CMM-forming enzyme; format: physicochemical, Arthrobacter globiformis M6
Method: The purified enzyme preparation of CMM-forming enzyme, obtained by the method in Experiment 4, was subjected to polyacrylamide gel isoelectrofocusing containing 2% (w/v) “AMPHOLINE”, a carrier ampholyte commercialized by Amersham Biosciences, Tokyo, Japan and isoelectric point of CMM-forming enzyme was measured compare with isoelectric point markers, commercialized by Amersham Biosciences, Tokyo, Japan.

[3] = Optimum temperature and optimum pH of the enzyme reaction; format: biochemical, Arthrobacter globiformis M6
Method: The enzyme activity of CMM-forming enzyme of the present invention can be assayed as follows: A substrate solution is prepared by dissolving soluble starch in 50 mM acetate buffer (pH 6.0) containing 2 mM CaCl2 to give a concentration of 2% (w/v). A half milliliter of an enzyme solution is added to 0.5 ml of the substrate solution, and the mixture solution is incubated at 40° C. for 30 min. After stopping the reaction by heating at about 100° C. for 10 min, the reaction mixture is admixed with 4,000 units/g-solid of α-glucosidase and 250 units/g-solid of glucoamylase to hydrolyze remaining soluble starch and by-products, oligosaccharides, and followed by the enzyme treatment at 50° C. for 1 hour. The amount of CMM contained in the treated mixture is determined by HPLC described later in Experiment 1. One unit activity of CMM-forming enzyme is defined as the amount of enzyme which forms one μmole of CMM per minute under the above conditions.
The results are in FIG. 5 (Optimum temperature) and in FIG. 6 (Optimum pH), respectively.

[4] = recombinant enzyme purified from transformant BMB1

Molecule | Action (CMM-forming enzyme) | Degradation rate (%) (Salivary α-amylase) | Degradation rate (%) (Pancreas α-amylase) | Degradation rate (%) [1] [%] | Degradation rate (%) (Small intestinal enzymes) | isoelectric point (pI) ([2]; purified enzyme from Arthrobacter globiformis M6, polyacrylamide gel isoelectrofocusing) | isoelectric point [2, 4] | optimum pH ([3]; purified enzyme from M6, reacted at 40° C. for 30 min) | optimum temperature ([3]; purified enzyme from M6, reacted at pH 6.0 for 30 min) [°C] | optimum pH [3, 4] | optimum temperature of CMM-forming enzyme activity [3, 4] [°C]
OC[C@@H](O)[C@@H](O[C@H]1O[C@H](CO)[C@@H](O)[C@H](O)[C@H]1O)[C@H](O)[C@@H](O)CO [Maltitol, maltitol] | − | 0 | 0 | 0 | 4 |  |  |  |  |  | 
B1 |  |  |  |  |  | 3.6±0.5 | about 3.6±0.5 | 5.5 to 6.5 | 50 to 55 | 5.5 to 6.5 | 50 to 55
